Measurements: US8822187B1, “Polypeptides, nucleic acid molecules, and methods for synthesis of triterpenes” (University of Kentucky Research Foundation, priority 2011, dated 2014)

T1: Botryococcus braunii race B squalene synthase-like 1 (SSL-1), wild type, hexa-histidine tagged, SEQ ID NO: 2 (Botryococcus braunii, UniProt G0Y286)
T1 construct: FPP substrate with or without NADPH
T1 sequence (G0Y286 1-403): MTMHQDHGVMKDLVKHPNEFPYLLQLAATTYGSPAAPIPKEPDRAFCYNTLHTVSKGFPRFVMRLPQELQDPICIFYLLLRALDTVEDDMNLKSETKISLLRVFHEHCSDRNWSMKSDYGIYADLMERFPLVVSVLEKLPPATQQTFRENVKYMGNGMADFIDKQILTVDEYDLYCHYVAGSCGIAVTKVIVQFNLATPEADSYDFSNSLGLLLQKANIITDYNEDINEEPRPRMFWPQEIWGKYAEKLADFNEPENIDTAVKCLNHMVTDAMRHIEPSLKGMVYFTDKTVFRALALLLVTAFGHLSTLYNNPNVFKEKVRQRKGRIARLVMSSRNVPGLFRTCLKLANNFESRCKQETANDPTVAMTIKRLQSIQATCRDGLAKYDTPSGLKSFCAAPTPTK

B1: SSL-3: Botryococcus braunii race B squalene synthase-like 3 enzyme; converts PSPP to botryococcene (protein)
chain: MKLREVLQHPGEIIPLLQMMVMAYRRKRKPQDPNLAWCWETLIKVSRSYVLVIQQLPEVLQDPICVNYLVLRGLDTLQDDMAIPAEKRVPLLLDYYNHIGDITWKPPCGYGQYVELIEEYPRVTKEFLKLNKQDQQFITDMCMRLGAEMTVFLKRDVLTVPDLDLYAFTNNGPVAICLTKLWVDRKFADPKLLDREDLSGHMAMFLGKINVIRDIKEDVLEDPPRIWWPKEIWGKYLKDLRDIIKPEYQKEALACLNDILTDALRHIEPCLQYMEMVWDEGVFKFCAVPELMSLATISVCYNNPKVFTGVVKMRRGETAKLFLSVTNMPALYKSFSAIAEEMEAKCVREDPNFALTVKRLQDVQALCKAGLAKSNGKVSAKGA

Experiments:
[1] = target: T1, Botryococcus braunii race B squalene synthase-like 1 (SSL-1), wild type, hexa-histidine tagged, SEQ ID NO: 2; assay: Michaelis-Menten enzyme kinetics of the SSL-1 reaction (radiolabeled FPP to PSPP); format: biochemical
Experimental: FIG. 5 depicts Michaelis-Menten enzyme kinetics of the SSL-1 reaction. Enzyme assays (50 μl) were set up as described in the methods section with purified SSL-1 (0.2-1.0 μg), 0.1% triton X-100, ±2 mM NADPH, and the indicated concentration of ^3H-FPP. Assays were incubated for 15 min at 37° C. and stopped by addition of 50 μl 0.5 M EDTA. The reactions were then extracted 3× with 200 μl water saturated 1-butanol and pooled in a 4 ml glass screw cap vial. The butanol was evaporated with a stream of nitrogen gas and the white residue was resuspended in 2 ml of acid phosphatase solution (20% 1-propanol (v/v), 100 mM sodium acetate pH 4.7, 0.1% Triton X-100, 10 units sweet potato acid phosphatase) and incubated overnight (12-16 h) in a 28° C. shaker. […] The standards were visualized with iodine vapors and the zones corresponding to FOH (rf=0.65) and PSOH (rf=0.45) were scraped and analyzed by scintillation spectroscopy. […] The data was analyzed using the SigmaPlot Enzyme Kinetics 1.3 software. […]
Purification of the bacterial expressed enzymes was afforded by the amino-terminal hexa-histidine tag using His-Select Cobalt affinity gel (Sigma) columns according the manufacturer's recommendations. Recovery of proteins with the expected molecular sizes was determined by SDS-PAGE. […]

TN7 yeast line = assay: Expression of SSL genes in TN7 yeast line, hexane extractable metabolites by GC-MS; format: cell-based; conditions: gene expressed separately in yeast
Description: (§1) FIG. 6 depicts the functional characterization of the squalene synthase-like genes of Botryococcus braunii race B. The squalene synthase-like genes, SSL-1, SSL-2 and SSL-3, were expressed in yeast separately (SSL-1 (B), SSL-2(C) or SSL-3(D)) or in combinations (SSL-1+SSL-2(E), SSL-1+SSL-3(F)) and the hexane extractable metabolites profiled by GC-MS. The chemical profile of yeast not engineered with any gene constructs serves as the background control (A). […] Data (J) represents mean±S.E.M. obtained from three independent experiments (n=3). The chromatograms (A-I) are also annotated for the elution behavior of botryococcene (1), squalene (2), presqualene alcohol (3) and bisfarnesyl ether (4).
FIG. 10 includes a comparison of botryococcene production in yeast engineered with different configurations of SSL-1 and SSL-3. Yeast line TN7 was engineered with the SSL-1 and SSL-3 genes on separate plasmids (squares), with gene fusions (SSL-1 fused to SSL-3 via a triplet repeat of GGSG (triangles), or vice versa (diamonds)), or with 63 or 71 amino acids of the carboxy terminus of the Botryococcus squalene synthase, sequences containing a membrane spanning domain, appended to the carboxy termini of the SSL-1 and SSL-3 enzymes, respectively (circles). The data represents mean±S.E.M.
The various recombinant yeast expression vectors were introduced into the TN7 yeast line via lithium acetate transformation, followed by selection for uracil and leucine auoxtrophic growth (Takahashi, et al. (2007)). […] Individual colonies of TN7 and the various TN7-transformants were subsequently grown in 25 ml of YPDE (nutrient rich) or Yeast Synthetic Drop-out medium (selection) for the indicated time at 25° C. before analyzing the cultures for production of novel triterpene components. In brief, 1 ml aliquots of the culture were combined with 1 ml of acetone, vigorously mixed, and incubated at room temperature for 10 min. One ml of hexane was added and mixed vigorously for 60 sec. […] The dried extract was resuspended in 50-500 μl of n-hexane and a 1 μl aliquot analyzed by GC-MS as described above. […]

[2] = Purified bacterial-expressed enzymes incubated with FPP, products by GC-MS or TLC/scintillation counting; format: biochemical; conditions: FPP as substrate, enzyme assayed alone
Description: as §1
The recombinant vectors were transformed into E. coli strain BL21(DE3) according to the manufacturer's recommendations (Novagen). The selected lines were grown with kanamycin selection at 37° C. with vigorous shaking until the cultures reached an optical density of ˜0.8 (OD600 nm), then expression of the corresponding SSL gene induced by addition of 0.5 mM isopropylthio-β-D-galactoside (IPTG) and the cultures incubate for an additional 3 to 20 h with shaking at room temperature. One hundred ml of the culture was subject to centrifugation at 4,000 g for 10 min, the pelleted cells resuspended in 10 ml of lysis buffer containing 50 mM NaH2PO4, pH 7.8, 300 mM NaCl, 10 mM imidazole, 1 mM MgCl2, 1 mM PMSF, 1% glycerol (v/v), then sonicated 4× for 10 sec with a microprobe sonicator at 60% maximum power. The samples were cooled on ice for 2 min between sonication treatments. The sonicate was centrifuged at 16,000 g for 10 min at 4° C. and the supernatant used for purification of the hexa-histidine tagged enzymes.
Purification of the bacterial expressed enzymes was afforded by the amino-terminal hexa-histidine tag using His-Select Cobalt affinity gel (Sigma) columns according the manufacturer's recommendations. Recovery of proteins with the expected molecular sizes was determined by SDS-PAGE. The purified protein fractions were concentrated using Amicon Ultra (0.5 ml, 10K) centrifugation filter units and stored in 300 mM NaCl, 20 mM Tris-HCl pH 7.5, 5 mM dithiothreitol, 2 mM MgCL2, 50% glycerol (v/v) at −20° C. for 2-3 weeks without noticeable loss of activity.
Typical enzyme assays were initiated by mixing aliquots of purified enzyme with 50 mM Mops, pH 7.3, 20 mM MgCl2, 2.5 mM 2-mercaptoethanol, 10 μM [1-^3H]-FPP (˜2×10^5 dpm total), and 2 mM NADPH in total reaction volume of 50 μl. Reactions were incubated at 37° C. for 1 h and then extracted with 100 μl n-hexane or 100 ul MTBE. Forty μl of the n-hexane or MTBE extract was then spotted onto silica TLC plates with authentic standards of botryococcene and squalene and developed with n-hexane, or standards of bisfarnesyl ether and developed with n-hexane:MTBE, 25:1. The standards were visualized with iodine vapors and TLC zones corresponding to the standards were scrapped and analyzed by scintillation spectrometry. If Botryococcus lysate was added to enzyme assays, typically 5 μl of lysate (corresponding to 10 μg total protein) prepared from B. braunii cells according to Okada et al. (1) was added. […] Extracts were resuspended in 50 μl hexane and an aliquot analyzed by GC-MS with a Varian CP-3800 GC coupled to a Varian Saturn 2200 MS/MS (Varian Medical Systems) using a Supelco SLB-5 ms fused silica capillary column (30 m×0.25 mm×0.25 μM film thickness, Supelco). […]

[3] = Secondary enzyme assays of SSL-3 or SSL-2 with PSPP versus FPP; format: biochemical; conditions: 2 mM NADPH, 1 μg enzyme, 37° C., 15 min
Experimental: Two primary enzyme assays (500 μl) were set up with 20 μg of purified SSL-1 or Nicotiana benthamiana squalene synthase (TSS) plus 40 μM ^3H-FPP. The assays were incubated at 37° C. for 1 h, then extracted 3× with 500 μl water saturated 1-butanol, pooled, and evaporated under a stream of nitrogen gas. The white residue was resuspended in 50 μl of 25 mM NH4HCO3 in 70% ethanol (v/v). An aliquot of the resuspension was analyzed by the acid phosphatase assay (described in supplemental FIG. 4) and shown to consist of 45% and 40% PSPP for the SSL-1 and TSS primary incubations, respectively. […] It was calculated that 1 μl of each resuspension contained ˜150 pmoles of 3H-PSPP. […] For comparison, enzyme assays were also set up containing 3 μM ^3H-FPP, 2 mM NADPH and either 1 μg each of SSL-1 plus SSL-3, or SSL-1 plus SSL-2. Additional control assays contained 5 μM ^3H-FPP, 2 mM NADPH, and either 1 μg of SSL-3 or SSL-2. The reactions were incubated at 37° C. for 15 min, stopped by addition of 50 μl 0.5 M EDTA, and extracted with 100 μl n-hexane. Aliquots of the hexane extracts, along with standards of squalene and botryococcene, were separated by silica TLC using n-hexane as the developing solvent. Standards were visualized with iodine vapors and the corresponding zones were analyzed by scintillation spectroscopy. […]

Molecule	stimulation of activity by NADPH addition ([1]; NADPH addition, radiolabeled FPP substrate)	effect of NADPH addition on enzyme activity (difference) ([1]; ±2 mM NADPH, 3H-FPP substrate, 15 min at 37° C.)	products accumulating in yeast (TN7 yeast line)	squalene or botryococcene biosynthesis by purified enzyme in vitro [2]	biosynthesis from PSPP versus FPP [3]
NC(=O)C1=CN([C@@H]2O[C@H](COP(=O)(O)OP(=O)(O)OC[C@H]3O[C@@H](n4cnc5c(N)ncnc54)[C@H](OP(=O)(O)O)[C@@H]3O)[C@@H](O)[C@H]2O)C=CC1 [NADPH]	no stimulation	less than 4%			
B1			did not cause the accumulation of any distinct products	neither bacterial-expressed, purified enzymes exhibited any botryococcene biosynthesis	efficiently catalyze the biosynthesis of squalene and botryococcene, respectively, from PSPP but not FPP
